{"source": "paper PMC6078178", "about": "(Nature, 2017)", "molecular_target": "T1, Tfa1 (TFIIE subunit) (S. cerevisiae, UniProt P36100 1-482)", "T1 sequence (looked up)": "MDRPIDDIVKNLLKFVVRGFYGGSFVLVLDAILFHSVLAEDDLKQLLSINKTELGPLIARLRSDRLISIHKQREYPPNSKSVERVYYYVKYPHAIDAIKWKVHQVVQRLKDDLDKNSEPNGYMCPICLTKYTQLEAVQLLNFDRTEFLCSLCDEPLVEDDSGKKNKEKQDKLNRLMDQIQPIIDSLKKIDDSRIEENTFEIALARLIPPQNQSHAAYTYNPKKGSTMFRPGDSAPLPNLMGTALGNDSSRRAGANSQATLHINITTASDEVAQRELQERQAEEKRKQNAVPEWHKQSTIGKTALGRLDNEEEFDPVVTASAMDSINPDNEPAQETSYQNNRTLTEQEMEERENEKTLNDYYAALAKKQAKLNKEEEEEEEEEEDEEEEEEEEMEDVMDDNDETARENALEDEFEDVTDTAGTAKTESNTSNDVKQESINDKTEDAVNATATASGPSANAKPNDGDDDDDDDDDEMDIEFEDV", "assay": "cross-linking", "data": [{"binder": "Ssl1 (natural protein, S. cerevisiae, UniProt Q04673 1-461, looked up) MAPVVISESEEDEDRVAITRRTKRQVHFDGEGDDRVDQQQQQHSSSHRDRDKHVQRKKKKRLSNRNLQGSNGGYAWEDEIKRSWDLVKVDDEGDMASLVASIVEARKKRTAKKNITPYQRGIIRSLILTLDCSEAMLEKDLRPNRHAMIIQYAIDFVHEFFDQNPISQMGIIIMRNGLAQLVSQVSGNPQDHIDALKSIRKQEPKGNPSLQNALEMARGLLLPVPAHCTREVLIVFGSLSTTDPGDIHQTIDSLVSEKIRVKVLGLSAQVAICKELCKATNYGDESFYKILLDETHLKELFNEAVTPLPVNKINKGFTLVKMGFPTRIFEDTPTFCSCHSKLVYGGYFCPNCHSKVCSLPTVCPCCDLMLILSTHLARSYHHLMPLKTFAEVPTTEKFRSEDCFSCQSRFPILKNHKNGKLLTSSRYRCEDCKQEFCVDCDVFIHEILHNCPGCESKPVIT", "values": [{"measurement": "binding result", "value": "binds"}]}]}
